Experimental data reported in article PMC7351599.

Biological target: TMIEdel80–100-HA (UniProt Q8K467)
Test: co-IP

B1: MYC-TMC1 (natural protein)
chain: MLQIQVEEKEEDTEESSSEEEEDKLPRRESLRPKRKRTRDVINEDDPEPEPEDEETRKAREKERRRRLRRGAEEEEEIDEEELERLKALLDENRQMIATVKCKPWKMEKKIEVLKEAKKFVSENEGALGKGKGKKWFAFKMMMAKKWAKFLRDFENFKAACVPWENKIKAIESQFGSSVASYFLFLRWMYGVNMVLFVLTFSLIMLPEYLWGLPYGSLPRKTVPRAEEASAANFGVLYDFNGLAQYSVLFYGYYDNKRTIGWLNFRLPLSYFLVGIMCIGYSFLVVLKAMTKNIGDDGGGDDNTFNFSWKVFCSWDYLIGNPETADNKFNSITMNFKEAIIEERAAQVEENIHLIRFLRFLANFFVFLTLGASGYLIFWAVKRSQEFAQQDPDTLGWWEKNEMNMVMSLLGMFCPTLFDLFAELEDYHPLIALKWLLGRIFALLLGNLYVFILALMDEINNKIEEEKLVKANITLWEANMIKAYNESLSGLSGNTTGAPFFVHPADVPRGPCWETMVGQEFVRLTVSDVLTTYVTILIGDFLRACFVRFCNYCWCWDLEYGYPSYTEFDISGNVLALIFNQGMIWMGSFFAPSLPGINILRLHTSMYFQCWAVMCCNVPEARVFKASRSNNFYLGMLLLILFLSTMPVLYMIVSLPPSFDCGPFSGKNRMFEVIGETLEHDFPSWMAKILRQLSNPGLVIAVILVMVLTIYYLNATAKGQKAANLDLKKKMKQQALENKMRNKKMAAARAAAAAGGQ
  percent reduction of co-IP against TMIE-HA: 80%
